Reference: patent publication US5319071, “Soluble interleukin-1 receptors” (Immunex Corporation, dated 1994)

What was measured:
[1] = target: native murine IL-1 receptor of EL-4 6.1 C10 cells (murine)
[2] = target: T1, recombinant human IL-1α (polypeptide composed of the C-terminal 157 residues of IL-1α, Mr 17,500 form) (human, UniProt P01583, 125I label (chloramine-T method, ca 1 atom of iodine per IL-1α molecule) where used as tracer; fluorescein isothiocyanate conjugate in flow cytometry; unlabeled as competitor; coupled to Sepharose 4B …); assay: direct binding of 125I-IL-1α to COS cells transfected with clone 78, Scatchard analysis
T1 sequence: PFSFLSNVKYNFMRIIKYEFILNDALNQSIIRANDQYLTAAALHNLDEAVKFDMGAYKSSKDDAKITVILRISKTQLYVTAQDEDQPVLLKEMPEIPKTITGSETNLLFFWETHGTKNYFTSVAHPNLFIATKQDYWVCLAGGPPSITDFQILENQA

[3] = target: T1, recombinant human IL-1α (polypeptide …); assay: direct binding of 125I-IL-1α to EL-4 6.1 C10 cells, Scatchard analysis
[4] = target: T1, recombinant human IL-1α (polypeptide …); assay: receptor in Triton X-100 solution (diluted extract) inhibiting 125I-IL-1α binding to extract on nitrocellulose; competitive inhibition model

Molecule: recombinant human IL-1α (polypeptide composed of the C-terminal 157 residues of IL-1α, Mr 17,500 form) (from UniProt P01583) (ligand)
- IL-2 production from EL-4 6.1 C10 cells [1]: 100%

B1: recombinant murine IL-1 receptor (clone 78 in pDC201) expressed on COS cells (receptor)
chain: LEIDVCTEYPNQIVLFLSVNEIDIRKCPLTPNKMHGDTIIWYKNDSKTPISADRDSRIHQQNEHLWFVPAKVEDSGYYYCIVRNSTYCLKTKVTVTVLENDPGLCYSTQATFPQRLHIAGDGSLVCPYVSYFKDENNELPEVQWYKNCKPLLLDNVSFFGVKDKLLVRNVAEEHRGDYICRMSYTFRGKQYPVTRVIQFITIDENKRDRPVILSPRNETIEADPGSMIQLICNVTGQFSDLVYWKWNGSEIEWNDPFLAEDYQFVEHPSTKRKYTLITTLNISEVKSQFYRYPFICVVKNTNIFESAHVQLIYPVPDFKNYLIGGFIILTATIVCCVCIYKVFKVDIVLWYRDSCSGFLPSKASDGKTYDAYILYPKTLGEGSFSDLDTFVFKLLPEVLEGQFGYKLFIYGRDDYVGEDTIEVTNENVKKSRRLIIILVRDMGGFSWLGQSSEEQIAIYNALIQEGIKIVLLELEKIQDYEKMPDSIQFIKQKHGVICWSGDFQERPQSAKTRFWKNLRYQMPAQRRSPLSKHRLLTLDPVRDTKEKLPAATHLPLG
- Ka [2]: 3e+09 M⁻¹

B2: native murine IL-1 receptor of EL-4 6.1 C10 cells (receptor)
chain: B1 chain
modifications: glycoprotein (N-linked carbohydrate), Mr 82,000
- Ka [3]: 4.3e+09 M⁻¹
- Ka [4]: 4.5e+09 M⁻¹
